Consider 1 molecule from article doi:10.1101/402990 (bioRxiv, 2018).

The target of the test is T1, 6His-Tea3 (S. pombe, UniProt O14248 1-1125).
T1 sequence (looked up): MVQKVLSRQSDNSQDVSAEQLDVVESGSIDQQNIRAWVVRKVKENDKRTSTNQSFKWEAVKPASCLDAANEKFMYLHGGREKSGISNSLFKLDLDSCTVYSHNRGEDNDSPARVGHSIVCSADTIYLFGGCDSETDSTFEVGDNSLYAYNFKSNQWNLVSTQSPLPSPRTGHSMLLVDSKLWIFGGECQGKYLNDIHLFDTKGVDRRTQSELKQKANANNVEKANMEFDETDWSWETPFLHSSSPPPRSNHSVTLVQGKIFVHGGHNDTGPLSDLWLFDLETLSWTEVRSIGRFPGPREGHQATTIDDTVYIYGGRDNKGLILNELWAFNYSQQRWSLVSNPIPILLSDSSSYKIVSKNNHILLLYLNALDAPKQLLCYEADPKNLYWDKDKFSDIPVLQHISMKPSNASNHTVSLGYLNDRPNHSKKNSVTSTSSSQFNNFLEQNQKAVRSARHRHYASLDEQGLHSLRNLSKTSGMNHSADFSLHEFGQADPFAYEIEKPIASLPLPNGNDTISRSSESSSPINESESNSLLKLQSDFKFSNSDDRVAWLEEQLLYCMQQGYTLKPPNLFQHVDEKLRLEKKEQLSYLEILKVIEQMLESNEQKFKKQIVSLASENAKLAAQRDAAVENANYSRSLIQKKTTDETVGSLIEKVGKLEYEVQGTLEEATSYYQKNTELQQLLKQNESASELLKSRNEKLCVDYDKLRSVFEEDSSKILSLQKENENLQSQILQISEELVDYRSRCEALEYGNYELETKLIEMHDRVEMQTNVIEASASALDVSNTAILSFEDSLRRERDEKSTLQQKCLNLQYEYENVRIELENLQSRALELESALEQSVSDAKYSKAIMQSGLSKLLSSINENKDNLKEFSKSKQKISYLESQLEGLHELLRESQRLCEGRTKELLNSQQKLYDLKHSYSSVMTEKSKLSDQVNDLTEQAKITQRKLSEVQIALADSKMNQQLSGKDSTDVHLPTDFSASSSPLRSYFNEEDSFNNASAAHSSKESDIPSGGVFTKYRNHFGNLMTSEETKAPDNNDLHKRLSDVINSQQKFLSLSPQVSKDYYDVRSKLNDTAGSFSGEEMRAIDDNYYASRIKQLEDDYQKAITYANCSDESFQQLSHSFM
Briefly: pull-down.

B1: GST-Shk1 (enzyme, S. pombe, UniProt P50527 1-658, looked up)
chain: MERGTLQPRKKAPNGYGITPIVAHKTGEPVRYEVEDDLRKLKPSRTAPKPPAINTNLAEDTFSGFPLSQSRTTVSRVSLGSRQHSSSSIRKLQTNVSDVRSYDERNQKKSAFENFVSSMSSFLTGGGSSPTSSYGSGSASPRKSTVISSPFDPKHVTHVGFNYDTGEFTGMPTEWQALLKVSGITKSEQVQHPQAVLDAMAFYSQSKKYLEEGAKPPFPRESTEKPLLSVSALSSSSHLQPTSATSSSSRLYPSRPAPTPPASSSSSPLLSSQTVKTTTSNASRQPSPLVSSKSTDNIIRSHSPVLLTPQTLSTSETKHIRPNNSTPYQRRAETSTKPKAVATPQKVEAPSAPRLQKRAPRQQSNDSAVLAKLQSICNPKNPTLLYRNFVKIGQGASGDVYSARQVGTNLSVAIKKMNINQQPKKEFIVNEILVMKSHHHKNIVNFIDTFFYKSELWMVMEYMRGGSLTEVVTNNTLSEGQIAAICKETLEGLQHLHENGIVHRDIKSDNILLSLQGDIKLTDFGFCAQIDSNMTKRTTMVGTPYWMAPEVVTRKEYGFKVDVWSLGIMAIEMVEGEPPYLNENPLRALYLIATIGTPKISRPELLSSVFHDFLSKSLTVNPKQRPSSGELLRHPFLKQAVPVSSLIPLIKSIHHSGK
For the molecule B1, the binding result was “binds”.
